Positions of bridges follow the written chain, without caps; N, C: chain ends. Residues, ends and D or L forms follow the SMILES beside them. *: point of attachment. DOTA = O=C(O)CN1CCN(CC(=O)O)CCN(CC(=O)*)CCN(CC(=O)O)CC1
Experiments:
[1] = in vitro; format: in vitro ADME; settings: mouse, serum
Procedure: Radiolabeled AgRP* peptides were incubated in 0.01 M PBS (pH 7.4) at 37°C for 24 h and monitored for degradation by HPLC. Stability was also tested by incubating 0.74 MBq (20 μCi) ^111In-DOTA-AgRP-7C or ^111In-DOTA-AgRP-6E in 400 μL of mouse serum at 37°C for 2 h. Afterward, the mixture was re-suspended in 0.5 mL of DMF containing 5 μL of Triton X-100 and centrifuged at 16,000 g for 2 min. The supernatant, which contained >95% of the starting radioactivity, was filtered using a 10 K NanoSep device (Pall Corporation, East Hills, NY, USA). Greater than 99% of the radioactive material passed through this filter. The samples were analyzed by radio-HPLC, and the percentage of intact peptide was determined by quantifying peaks corresponding to the intact peptide and to the degradation products.
Figure 1 Stability analysis of ^111In-DOTA-AgRP-7C (a) and (b), and ^111In-DOTA-AgRP-6E (c) and (d) in PBS and mouse serum. The two radiopeptides were incubated with PBS for 24 h at […], and mouse serum for 2 h at 37°C.

[2] = in vivo; settings: female, athymic nu/nu, mouse, iv, total radioactivity
Procedure: All animal studies were carried out in compliance with federal and local institutional rules for animal experimentation. Approximately, 10^7 U87MG cells were suspended in PBS and subcutaneously implanted in the left shoulders of female athymic nu/nu mice. Tumors were allowed to grow to a size of 0.5 cm (2-3 weeks) before imaging experiments were performed. For biodistribution studies, U87MG tumor-bearing mice (n = 3 for each group) were injected with ^111In-DOTA-AgRP-7C (0.259–0.37 MBq, […]) or ^111In-DOTA-AgRP-6E (0.296–0.444 MBq, 8–12 μCi) via the tail vein and sacrificed at different time points (0.5, 2, 24, and 48 h) after injection (p.i.). Tumor and normal tissues of interest were removed and weighed, and their radioactivity was measured with a γ-counter. Radioactivity uptake was expressed as the percent injected dose per gram of tissue (%ID/g). To test the in vivo αvβ3 integrin targeting specificity of the probe, U87MG tumor-bearing mice (n = 3 for each group) were injected via the tail vein with a mixture of ^111In-DOTA-AgRP-7C (0.259–0.37 MBq, 7–10 μCi) and 330 μg of c(RGDyK). The mice were sacrificed at 2 h p.i. and the biodistribution of the radiolabeled peptide was measured as above.
Quantitative data were expressed as mean ± SD. Means were compared using the Student t-test. A 95% confidence level was chosen to determine the significance between groups, with P values of less than 0.05 indicating significant differences.

`CC(C)C[C@@H]1NC(=O)[C@@H]2CSSC[C@@H]3NC(=O)[C@H]([C@@H](C)O)NC(=O)[C@H](C)NC(=O)[C@H](C)NC(=O)[C@@H]4CCCN4C(=O)[C@H](CC(=O)O)NC(=O)[C@H](CSSC[C@H](NC(=O)CNC(=O)CN4CCN(CC(=O)O)CCN(CC(=O)O)CCN(CC(=O)O)CC4)C(=O)N[C@@H](C(C)C)C(=O)N[C@@H](CCCNC(=N)N)C(=O)N[C@@H](CC(C)C)C(=O)N[C@@H](Cc4c[nH]cn4)C(=O)N[C@@H](CCC(=O)O)C(=O)N[C@@H](CO)C(=O)N2)NC(=O)[C@H](CSSC[C@@H](C(=O)N[C@@H](CCCNC(=N)N)C(=O)O)NC(=O)[C@H](Cc2ccc(O)cc2)NC(=O)[C@@H]2CSSC[C@H](NC(=O)[C@H](Cc4ccc(O)cc4)NC3=O)C(=O)N[C@@H](C(C)C)C(=O)N[C@@H](CCC(=O)O)C(=O)N[C@@H](CCCNC(=N)N)C(=O)NCC(=O)N[C@@H](CC(=O)O)C(=O)NCC(=O)N[C@@H](CC(N)=O)C(=O)N[C@@H](CCCNC(=N)N)C(=O)N[C@@H](CCCNC(=N)N)C(=O)N2)NC(=O)[C@@H]2CCCN2C(=O)[C@H](C(C)C)NC(=O)[C@H](CCC(N)=O)NC(=O)[C@H](CCC(N)=O)NC(=O)CNC1=O` [111In-DOTA-AgRP-6E, metal not drawn] ({DOTA}-GCVRLHESCLGQQVPCCDPAATCYCVERGDGNRRCYCR-OH; disulfide 2-17, 9-23, 16-37, 25-35) showed a remaining at 2 h, 1.85 MBq/mL [1] of over 95%, a tissue uptake at 0.5 h ([2]; Blood uptake) of 1.27 ± 0.53 %ID/g and a tissue uptake at 2 h ([2]; Blood uptake) of 0.06 ± 0.05 %ID/g. For the same molecule, the tissue uptake at 24 h ([2]; Blood uptake) was 0.01 %ID/g, the tissue uptake at 0.5 h ([2]; Bone uptake) was 1.18 ± 0.15 %ID/g and the tissue uptake at 2 h ([2]; Bone uptake) was 0.56 ± 0.1 %ID/g. For the same molecule, the tissue uptake at 24 h ([2]; Bone uptake) was 0.36 ± 0.04 %ID/g, the tissue uptake at 0.5 h ([2]; Brain uptake) was 0.06 ± 0.01 %ID/g and the tissue uptake at 2 h ([2]; Brain uptake) was 0.02 ± 0.01 %ID/g. For the same molecule, the tissue uptake at 24 h ([2]; Brain uptake) was 0.02 ± 0.01 %ID/g, the tissue uptake at 0.5 h ([2]; Heart uptake) was 0.8 ± 0.24 %ID/g and the tissue uptake at 2 h ([2]; Heart uptake) was 0.18 ± 0.06 %ID/g. It also gave a tissue uptake at 24 h ([2]; Heart uptake) of 0.12 ± 0.02 %ID/g, a tissue uptake at 0.5 h ([2]; Intestine uptake) of 2.04 ± 0.54 %ID/g and a tissue uptake at 2 h ([2]; Intestine uptake) of 1.13 ± 0.14 %ID/g. The tissue uptake at 24 h ([2]; Intestine uptake) was 0.93 ± 0.04 %ID/g, the tissue uptake at 0.5 h ([2]; Kidneys uptake) was 15.4 ± 3.19 %ID/g and the tissue uptake at 2 h ([2]; Kidneys uptake) was 14.7 ± 1.98 %ID/g. It also gave a tissue uptake at 24 h ([2]; Kidneys uptake) of 6.87 ± 1.19 %ID/g, a tissue uptake at 0.5 h ([2]; Liver uptake) of 0.87 ± 0.2 %ID/g and a tissue uptake at 2 h ([2]; Liver uptake) of 0.52 ± 0.01 %ID/g. The tissue uptake at 24 h ([2]; Liver uptake) was 0.48 ± 0.02 %ID/g, the tissue uptake at 0.5 h ([2]; Lung uptake) was 1.86 ± 0.56 %ID/g and the tissue uptake at 2 h ([2]; Lung uptake) was 0.54 ± 0.12 %ID/g. The tissue uptake at 24 h ([2]; Lung uptake) was 0.27 ± 0.02 %ID/g, the tissue uptake at 0.5 h ([2]; Muscle uptake) was 0.64 ± 0.09 %ID/g and the tissue uptake at 2 h ([2]; Muscle uptake) was 0.15 ± 0.07 %ID/g. For the same molecule, the tissue uptake at 24 h ([2]; Muscle uptake) was 0.07 ± 0.01 %ID/g, the tissue uptake at 0.5 h ([2]; Pancreas uptake) was 0.57 ± 0.23 %ID/g and the tissue uptake at 2 h ([2]; Pancreas uptake) was 0.2 ± 0.06 %ID/g. The tissue uptake at 24 h ([2]; Pancreas uptake) was 0.14 ± 0.01 %ID/g, the tissue uptake at 0.5 h ([2]; Spleen uptake) was 1.36 ± 0.26 %ID/g and the tissue uptake at 2 h ([2]; Spleen uptake) was 0.83 ± 0.05 %ID/g. For the same molecule, the tissue uptake at 24 h ([2]; Spleen uptake) was 0.65 ± 0.06 %ID/g, the tissue uptake at 0.5 h ([2]; Stomach uptake) was 2.02 ± 0.47 %ID/g and the tissue uptake at 2 h ([2]; Stomach uptake) was 0.87 ± 0.14 %ID/g. For the same molecule, the tissue uptake at 24 h ([2]; Stomach uptake) was 0.53 ± 0.02 %ID/g, the tissue uptake at 0.5 h ([2]; Tumor uptake) was 1.76 ± 0.34 %ID/g and the tissue uptake at 2 h ([2]; Tumor uptake) was 1.21 ± 0.21 %ID/g. For the same molecule, the tissue uptake at 24 h ([2]; Tumor uptake) was 0.89 ± 0.06 %ID/g, the tissue to tissue ratio at 0.5 h ([2]; Tumor-to-blood ratio) was 1.71 ± 1.21 and the tissue to tissue ratio at 2 h ([2]; Tumor-to-blood ratio) was 33 ± 23.3. The tissue to tissue ratio at 24 h ([2]; Tumor-to-blood ratio) was 142 ± 3.39, the tissue to tissue ratio at 0.5 h ([2]; Tumor-to-muscle ratio) was 2.75 ± 0.28 and the tissue to tissue ratio at 2 h ([2]; Tumor-to-muscle ratio) was 9.2 ± 3.88. It also gave a tissue to tissue ratio at 24 h ([2]; Tumor-to-muscle ratio) of 13.1 ± 1.94.

From paper PMC3336217, “^111In-Labeled Cystine-Knot Peptides Based on the Agouti-Related Protein for Targeting Tumor Angiogenesis” (Journal of Biomedicine and Biotechnology, 2012)
